Reference: patent US11471462B2, “Compositions and methods for detecting and treating diabetes” (THE BROAD INSTITUTE, INC., priority 2016, dated 2022)

B1: ADCK4 (protein)
chain: MWLKVGGLLRGTGGQLGQTVGWPCGALGPGPHRWGPCGGSWAQKFYQDGPGRGLGEEDIRRAREARPRKTPRPQLSDRSRERKVPASRISRLANFGGLAVGLGLGVLAEMAKKSMPGGRLQSEGGSGLDSSPFLSEANAERIVQTLCTVRGAALKVGQMLSIQDNSFISPQLQHIFERVRQSADFMPRWQMLRVLEEELGRDWQAKVASLEEVPFAAASIGQVHQGLLRDGTEVAVKIQYPGIAQSIQSDVQNLLAVLKMSAALPAGLFAEQSLQALQQELAWECDYRREAACAQNFRQLLANDPFFRVPAVVKELCTTRVLGMELAGGVPLDQCQGLSQDLRNQICFQLLTLCLRELFEFRFMQTDPNWANFLYDASSHQVTLLDFGASREFGTEFTDHYIEVVKAAADGDRDCVLQKSRDLKFLTGFETKAFSDAHVEAVMILGEPFATQGPYDFGSGETARRIQDLIPVLLRHRLCPPPEETYALHRKLAGAFLACAHLRAHIACRDLFQDTYHRYWASRQPDAATAGSLPTKGDSWVDPS
B2: VDAC2 (protein)
chain: MSWCNELRLPALKQHSIGRGLESHITMCIPPSYADLGKAARDIFNKGFGFGLVKLDVKTKSCSGVEFSTSGSSNTDTGKVTGTLETKYKWCEYGLTFTEKWNTDNTLGTEIAIEDQICQGLKLTFDTTFSPNTGKKSGKIKSSYKRECINLGCDVDFDFAGPAIHGSAVFGYEGWLAGYQMTFDSAKSKLTRNNFAVGYRTGDFQLHTNVNDGTEFGGSIYQKVCEDLDTSVNLAWTSGTNCTRFGIAAKYQLDPTASISAKVNNSSLIGVGYTQTLRPGVKLTLSALVDGKSINAGGHKVGLALELEA
B3: MAGED1 (protein)
chain: MAQKMDCGAGLLGFQNPDACRAVCHPLPQPPASTLPLSAFPTLCDPPYSQLRDPPAVLSCYCTPLGASPAPAEASVEDSALLMQTLMEAIQISEAPPTNQATAAASPQSSQPPTANEMADIQVSAAAARPKSAFKVQNATTKGPNGVYDFSQAHNAKDVPNTQPKAAFKSQNATPKGPNAAYDFSQAATTGELAANKSEMAFKAQNATTKVGPNATYNFSQSLNANDLANSRPKTPFKAWNDTTKAPTADTQTQNVNQAKMATSQADIETDPGISEPDGATAQTSADGSQAQNLESRTIIRGKRTRKINNLNVEENSSGDQRRAPLAAGTWRSAPVPVTTQNPPGAPPNVLWQTPLAWQNPSGWQNQTARQTPPARQSPPARQTPPAWQNPVAWQNPVIWPNPVIWQNPVIWPNPIVWPGPVVWPNPLAWQNPPGWQTPPGWQTPPGWQGPPDWQGPPDWPLPPDWPLPPDWPLPTDWPLPPDWIPADWPIPPDWQNLRPSPNLRPSPNSRASQNPGAAQPRDVALLQERANKLVKYLMLKDYTKVPIKRSEMLRDIIREYTDVYPEIIERACFVLEKKFGIQLKEIDKEEHLYILISTPESLAGILGTTKDTPKLGLLLVILGVIFMNGNRASEAVLWEALRKMGLRPGVRHPLLGDLRKLLTYEFVKQKYLDYRRVPNSNPPEYEFLWGLRSYHETSKMKVLRFIAEVQKRDPRDWTAQFMEAADEALDALDAAAAEAEARAEARTRMGIGDEAVSGPWSWDDIEFELLTWDEEGDFGDPWSRIPFTFWARYHQNARSRFPQTFAGPIIGPGGTASANFAANFGAIGFFWVE
B4: XPO5 (protein)
chain: AMDQVNALCEQLVKAVTVMMDPNSTQRYRLEALKFCEEFKEKCPICVPCGLRLAEKTQVAIVRHFGLQILEHVVKFRWNGMSRLEKVYLKNSVMELIANGTLNILEEENHIKDALSRIVVEMIKREWPQHWPDMLIELDTLSKQGETQTELVMFILLRLAEDVVTFQTLPPQRRRDIQQTLTQNMERIFSFLLNTLQENVNKYQQVKTDTSQESKAQANCRVGVAALNTLAGYIDWVSMSHITAENCKLLEILCLLLNEQELQLGAAECLLIAVSRKGKLEDRKPLMVLFGDVAMHYILSAAQTADGGGLVEKHYVFLKRLCQVLCALGNQLCALLGADSDVETPSNFGKYLESFLAFTTHPSQFLRSSTQMTWGALFRHEILSRDPLLLAIIPKYLRASMTNLVKMGFPSKTDSPSCEYSRFDFDSDEDFNAFFNSSRAQQGEVMRLACRLDPKTSFQMAGEWLKYQLSTFLDAGSVNSCSAVGTGEGSLCSVFSPSFVQWEAMTLFLESVITQMFRTLNREEIPVNDGIELLQMVLNFDTKDPLILSCVLTNVSALFPFVTYRPEFLPQVFSKLFSSVTFETVEESKAPRTRAVRNVRRHACSSIIKMCRDYPQLVLPNFDMLYNHVKQLLSNELLLTQMEKCALMEALVLISNQFKNYERQKVFLEELMAPVASIWLSQDMHRVLSDVDAFIAYVGTDQKSCDPGLEDPCGLNRARMSFCVYSILGVVKRTCWPTDLEEAKAGGFVVGYTSSGNPIFRNPCTEQILKLLDNLLALIRTHNTLYAPEMLAKMAEPFTKALDMLDAEKSAILGLPQPLLELNDSPVFKTVLERMQRFFSTLYENCFHILGKAGPSMQQDFYTVEDLATQLLSSAFVNLNNIPDYRLRPMLRVFVKPLVLFCPPEHYEALVSPILGPLFTYLHMRLSQKWQVINQRSLLCGEDEAADENPESQEMLEEQLVRMLTREVMDLITVCCVSKKGADHSSAPPADGDDEEMMATEVTPSAMAELTDLGKCLMKHEDVCTALLITAFNSLAWKDTLSCQRTTSQLCWPLLKQVLSGTLLADAVTWLFTSVLKGLQMHGQHDGCMASLVHLAFQIYEALRPRYLEIRAVMEQIPEIQKDSLDQFDCKLLNPSLQKVADKRRKDQFKRLIAGCIGKPLGEQFRKEVHIKNLPSLFKKTKPMLETEVLDNDGGGLATIFEP
B5: AUP1 (protein)
chain: MELPSGPGPERLFDSHRLPGDCFLLLVLLLYAPVGFCLLVLRLFLGIHVFLVSCALPDSVLRRFVVRTMCAVLGLVARQEDSGLRDHSVRVLISNHVTPFDHNIVNLLTTCSTPLLNSPPSFVCWSRGFMEMNGRGELVESLKRFCASTRLPPTPLLLFPEEEATNGREGLLRFSSWPFSIQDVVQPLTLQVQRPLVSVTVSDASWVSELLWSLFVPFTVYQVRWLRPVHRQLGEANEEFALRVQQLVAKELGQTGTRLTPADKAEHMKRQRHPRLRPQSAQSSFPPSPGPSPDVQLATLAQRVKEVLPHVPLGVIQRDLAKTGCVDLTITNLLEGAVAFMPEDITKGTQSLPTASASKFPSSGPVTPQPTALTFAKSSWARQESLQERKQALYEYARRRFTERRAQEAD
B6: PHGDH (protein)
chain: AFANLRKVLISDSLDPCCRKILQDGGLQVVEKQNLSKEELIAELQDCEGLIVRSATKVTADVINAAEKLQVVGRAGTGVDNVDLEAATRKGILVMNTPNGNSLSAAELTCGMIMCLARQIPQATASMKDGKWERKKFMGTELNGKTLGILGLGRIGREVATRMQSFGMKTIGYDPIISPEVSASFGVQQLPLEEIWPLCDFITVHTPLLPSTTGLLNDNTFAQCKKGVRVVNCARGGIVDEGALLRALQSGQCAGAALDVFTEEPPRDRALVDHENVISCPHLGASTKEAQSRCGEEIAVQFVDMVKGKSLTGVVNAQALTSAFSPHTKPWIGLAEALGTLMRAWAGSPKGTIQVITQGTSLKNAGNCLSPAVIVGLLKEASKQADVNLVNAKLLVKEAGLNVTTSHSPAAPGEQGFGECLLAVALAGAPYQAVGLVQGTTPVLQGLNGAVFRPEVPLRRDLPLLLFRTQTSDPAMLPTMIGLLAEAGVRLLSYQTSLVSDGETWHVMGISSLLPSLEAWKQHVTEAFQFHF
B7: TECR (protein)
chain: MKHYEVEILDAKTREKLCFLDKVEPHATIAEIKNLFTKTHPQWYPARQSLRLDPKGKSLKDEDVLQKLPVGTTATLYFRDLGAQISWVTVFLTEYAGPLFIYLLFYFRVPFIYGHKYDFTSSRHTVVHLACICHSFHYIKRLLETLFVHRFSHGTMPLRNIFKNCTYYWGFAAWMAYYINHPLYTPPTYGAQQVKLALAIFVICQLGNFSIHMALRDLRPAGSKTRKIPYPTKNPFTWLFLLVSCPNYTYEVGSWIGFAIMTQCLPVALFSLVGFTQMTIWAKGKHRSYLKEFRDYPPLRMPIIPFLL

Test system: SLC16A11
Assay: SLC16A11 protein-protein interaction study (immunoprecipitation, quantitative mass spectrometry)
Parameters: species or system human
Conditions: putative SLC16A11^REF interaction partners; immunoprecipitation from HEK293T cells vs empty vector control; Blandt-Altman
From the text: Alternatively, these variants may result in reduced transport because they disrupt protein-protein interactions responsible for correct SLC16A11 function. To explore this possibility, SLC16A11 was immunoprecipitated from HEK293T cells expressing either REF or T2D risk SLC16A11-V5 or empty vector control and quantitative mass spectrometry was used to define the SLC16A11 interactome.
Another mechanism through which the variants could affect activity is through disruption of protein-protein interactions. To explore this possibility, quantitative mass spectrometry-based protein-protein interaction studies were performed to define the SLC16A11 interactome and evaluate if the T2D risk coding variants alter any interactions.
Beads were then washed once with lysis buffer and three times with wash buffer. After the last wash, residual wash buffer was removed, 10 μL fresh wash buffer was added, and beads were stored at −80° C. until analysis by the Proteomics Platform at the Broad Institute, as detailed in the “Proteomics Methods for SLC16A11 Protein Interaction Studies” below.
The beads from immunopurification were washed once with IP lysis buffer, then three times with PBS, the three different lysates of each replicate were resuspended in 90 uL digestion buffer (2M Urea, 50 mM Tris HCl), 2 ug of sequencing grade trypsin added, 1 hour shaking at 700 rpm. The supernatant was removed and placed in a fresh tube. The beads were then washed twice with 50 uL digestion buffer and combined with the supernatant. The combined supernatants were reduced (2 uL 500 mM DTT, 30 minutes, RT), alkylated (4 uL 500 mM IAA, 45 minutes, dark) and a longer overnight digestion performed: 2 ug (4 uL) trypsin, shake o/n, The samples were then quenched with 20 uL 10% FA and desalted on 10 mg SepPak columns.
Desalted peptides were labelled with iTRAQ reagents according to the manufacturer's instructions (AB Sciex, Foster City, Calif.). Peptides were dissolved in 30 μl of 0.5 M TEAB pH 8.5 solution and labeling reagent was added in 70 ul of ethanol. After 1 h incubation the reaction was stopped with 50 mM Tris/HCl pH 7.5. Differentially labelled peptides were mixed and subsequently desalted on 10 mg SepPak columns.
Reconstituted peptides were separated on an online nanoflow EASY-nLC 1000 UHPLC system (Thermo Fisher Scientific) and analyzed on a benchtop Orbitrap Q Exactive Plus mass spectrometer (Thermo Fisher Scientific). The peptide samples were injected onto a capillary column (Picofrit with 10 μm tip opening/75 μm diameter, New Objective, PF360-75-10-N-5) packed in-house with 20 cm C18 silica material (1.9 μm ReproSil-Pur C18-AQ medium, Dr. Maisch GmbH, r119.aq). The UHPLC setup was connected with a custom-fit microadapting tee (360 μm, IDEX Health & Science, UH-753), and capillary columns were heated to 50° C. in column heater sleeves (Phoenix-ST) to reduce backpressure during UHPLC separation. Injected peptides were separated at a flow rate of 200 nL/min with a linear 80 min gradient from 100% solvent A (3% acetonitrile, 0.1% formic acid) to 30% solvent B (90% acetonitrile, 0.1% formic acid), followed by a linear 6 min gradient from 30% solvent B to 90% solvent B. Each sample was run for 120 min, including sample loading and column equilibration times. The Q Exactive instrument was operated in the data-dependent mode acquiring HCD MS/MS scans (R=17,500) after each MS1 scan (R=70,000) on the 12 top most abundant ions using an MS1 ion target of 3×10^6 ions and an MS2 target of 5×10^4 ions. The maximum ion time utilized for the MS/MS scans was 120 ms; the HCD-normalized collision energy was set to 27; the dynamic exclusion time was set to 20 s, and the peptide match and isotope exclusion functions were enabled.
All mass spectra were processed using the Spectrum Mill software package v6.0 pre-release (Agilent Technologies) which includes modules developed by us for iTRAQ-based quantification. […]

Molecule | BA log fold change
B1 | 1.11
B2 | 1.14
B3 | 1.09
B4 | 1.14
B5 | 1.10
B6 | 1.11
B7 | 1.10
